Results on three proteins are retold here after patent publication US20230183713A1, “SITE-SPECIFIC RECOMBINASES FOR EFFICIENT AND SPECIFIC GENOME EDITING” (TECHNISCHE UNIVERSITÄt DRESDEN, published 2023).

Positions count from the first letter of the chain named. Names may count otherwise.

Data set [1] has as its target T1, Cre recombinase monomer with W315N mutation.
T1 chain: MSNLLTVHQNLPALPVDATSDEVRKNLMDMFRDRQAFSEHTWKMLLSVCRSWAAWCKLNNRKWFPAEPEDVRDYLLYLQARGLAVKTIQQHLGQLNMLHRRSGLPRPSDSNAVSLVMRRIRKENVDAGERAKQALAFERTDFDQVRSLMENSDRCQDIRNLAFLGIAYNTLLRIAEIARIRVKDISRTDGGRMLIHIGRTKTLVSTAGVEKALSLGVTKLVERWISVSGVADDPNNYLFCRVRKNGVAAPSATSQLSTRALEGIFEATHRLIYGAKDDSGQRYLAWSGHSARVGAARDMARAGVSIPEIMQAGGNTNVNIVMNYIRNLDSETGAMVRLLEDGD

Data set [2] concerns the target T2, Cre recombinase monomer with K201N mutation.
T2 chain: T1 chain with K201N, N315W

For data set [3], the target named is T3, Cre recombinase monomer with Q311R mutation.
T3 chain: T1 chain with Q311R, N315W

Data set [4] deals with T4, Cre recombinase monomer with K201R mutation.
T4 chain: T1 chain with K201R, N315W

Data set [5] concerns the target T5, Cre recombinase monomer with K201Y mutation.
T5 chain: T1 chain with K201Y, N315W

For data set [6], the target named is T6, Cre recombinase monomer with Y324T mutation.
T6 chain: T1 chain with N315W, Y324T

The target in data set [7] is T7, Cre recombinase monomer with K201Q mutation.
T7 chain: T1 chain with K201Q, N315W

The target of data set [8] is T8, Cre recombinase monomer with E176V mutation.
T8 chain: T1 chain with E176V, N315W

The target in data set [9] is T9, Cre recombinase monomer with E176Y mutation.
T9 chain: T1 chain with E176Y, N315W

In data set [10] the target is T10, Cre recombinase monomer with E176I mutation.
T10 chain: T1 chain with E176I, N315W

In data set [11] the target is T11, Cre recombinase monomer with E176M mutation.
T11 chain: T1 chain with E176M, N315W

The target in data set [12] is T12, Cre recombinase monomer with E176W mutation.
T12 chain: T1 chain with E176W, N315W

B1: Cre recombinase monomer with E129R mutation (protein)
chain: T1 chain with E129R, N315W
With B1, the “Median dimer activity (recombination on loxP)” value (“Median dimer activity” below) amounted to 30% in data set [1], 35% in [2], 93% in data set [3] and 26% in [4].

B2: Cre recombinase monomer with R173G mutation (protein)
chain: T1 chain with R173G, N315W
B2: the “Median dimer activity” value in [5] is listed as 95%; in data set [6] it was 32%; in data set [3] it was 95%.

B3: Cre recombinase monomer with R173F mutation (protein)
chain: T1 chain with R173F, N315W
B3: the “Median dimer activity” value in data set [7] was determined as 39%; in [8] it was 82%; in [9], 40%; in data set [10] it was 25%; in data set [11] it was 38%; in data set [12], 30%. In data set [3], the “Median dimer activity” value was 84%.
